Assay results taken from US20230057012A1, “TGFB INHIBITORS AND USE THEREOF” (Scholar Rock, Inc., priority 2020, published 2023).
“Also recorded” adds a separate entry of the source.

Assays:
LLCs = test: ELISA binding to LLCs; conditions: hIgG4; FIGS. 3 and 4
mLTBP3-proTGFβ1 [1] = biological target: T1, mLTBP3-proTGFβ1; test: Biacore SPR Fab binding kinetics; set-up: species or system mouse; conditions: Table 8
T1 construct: biotin (the antigen complex is biotinylated); made in house
Experimental: (§1) Among these antibodies, Ab42, Ab46 and Ab50 were selected for further evaluation. Surface plasmon resonance (SPR) was used to measure binding kinetics using a BIACORE® system. Association and dissociation kinetics of Fab fragments of Ab42, Ab46, Ab50 and a reference antibody (shown as “Ref”), to antigen complexes were measured, and resulting equilibrium dissociation constants (KD) are provided below. Experiments were carried out with eight types of LLCs, namely, hLTBP1-proTGFβ1, mLTBP1-proTGFβ1, hLTBP3-proTGFβ1, mLTBP3-proTGFβ1, hGARP-proTGFβ1, mGARP-proTGFβ1, hLRRC33-proTGFβ1 and mLRRC33-proTGFβ1.
(§2) In vitro binding kinetics (on/off rates) were measured in Biacore-based assays and affinities were determined against all four known LLCs using both human and murine counterparts for each. Based on the association rate and dissociation rate, KD was calculated for each. In addition, relative affinities, as compared to the reference antibody as a benchmark, were calculated and expressed as “fold difference” relative to the reference antibody.
(§3) A BIACORE® system was employed to determine the monovalent binding affinity and the kinetic parameters for antigen binding of test antibodies. The binding kinetics were evaluated by surface plasmon resonance using Biacore 8K (GE Healthcare). A Biotin CAP sensor chip was used to capture the biotinylated antigens. Fabs at various concentrations (0 nM, 0.62 nM, 1.25 nM, 2.5 nM, 5 nM and 10 nM) were injected over the captured antigens. Multi-cycle kinetics was employed where each analyte concentration was injected in a separate cycle and the sensor chip surface was regenerated after each cycle. All the assays were carried out in freshly prepared 1× HBS-EP+ buffer (10 mM HEPES, 150 mM NaCl, 3 mM EDTA, 0.05% Tween20, pH 7.4). Data for all the analyte concentrations for each interaction were fit globally to a 1:1 binding model to obtain the kinetic parameters. The Sensorgram for 0 nM analyte concentration was used as reference.

mLTBP3-proTGFβ1 [2] = biological target: T2, mLTBP3-proTGFβ1 (Homo sapiens, UniProt P01137); test: Biacore SPR Fab binding kinetics; set-up: species or system mouse; conditions: Table 8
T2 construct: biotin (the antigen complex is biotinylated); made in house
Experimental: as §1, §2, §3

mLRRC33-proTGFβ1 [3] = biological target: T3, mLRRC33-proTGFβ1; test: Biacore SPR Fab binding kinetics; set-up: species or system mouse; conditions: Table 12
T3 construct: biotin (the antigen complex is biotinylated); made in house
Experimental: as §1, §2, §3

mGARP-proTGFβ1 [4] = biological target: T4, mGARP-proTGFβ1; test: Biacore SPR Fab binding kinetics; set-up: species or system mouse; conditions: Table 10
T4 construct: biotin (the antigen complex is biotinylated); made in house
Experimental: as §1, §2, §3

mLRRC33-proTGFβ1 [5] = biological target: T5, mLRRC33-proTGFβ1 (Homo sapiens, UniProt P01137); test: Biacore SPR Fab binding kinetics; set-up: species or system mouse; conditions: Table 12
T5 construct: biotin (the antigen complex is biotinylated); made in house
Experimental: as §1, §2, §3

mLTBP1-proTGFβ1 [6] = biological target: T6, mLTBP1-proTGFβ1; test: Biacore SPR Fab binding kinetics; set-up: species or system mouse; conditions: Table 6
T6 construct: biotin (the antigen complex is biotinylated); made in house
Experimental: as §1, §2, §3

mLTBP1-proTGFβ1 [7] = biological target: T7, mLTBP1-proTGFβ1 (Homo sapiens, UniProt P01137); test: Biacore SPR Fab binding kinetics; set-up: species or system mouse; conditions: Table 6
T7 construct: biotin (the antigen complex is biotinylated); made in house
Experimental: as §1, §2, §3

mGARP-proTGFβ1 [8] = biological target: T8, mGARP-proTGFβ1 (Homo sapiens, UniProt P01137); test: Biacore SPR Fab binding kinetics; set-up: species or system mouse; conditions: Table 10
T8 construct: biotin (the antigen complex is biotinylated); made in house
T8 sequence (P01137 30-390): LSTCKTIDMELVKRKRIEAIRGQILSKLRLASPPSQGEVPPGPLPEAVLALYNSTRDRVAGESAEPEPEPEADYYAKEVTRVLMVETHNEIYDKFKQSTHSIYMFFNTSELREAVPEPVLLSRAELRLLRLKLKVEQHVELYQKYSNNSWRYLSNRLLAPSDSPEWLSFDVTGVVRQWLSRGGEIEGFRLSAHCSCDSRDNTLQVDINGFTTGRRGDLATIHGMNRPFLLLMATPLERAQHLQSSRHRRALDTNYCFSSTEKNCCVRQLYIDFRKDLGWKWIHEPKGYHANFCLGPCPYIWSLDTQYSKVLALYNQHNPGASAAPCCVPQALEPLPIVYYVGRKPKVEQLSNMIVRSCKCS
T8 sequence (G3XA59 18-628 partner limits assumed): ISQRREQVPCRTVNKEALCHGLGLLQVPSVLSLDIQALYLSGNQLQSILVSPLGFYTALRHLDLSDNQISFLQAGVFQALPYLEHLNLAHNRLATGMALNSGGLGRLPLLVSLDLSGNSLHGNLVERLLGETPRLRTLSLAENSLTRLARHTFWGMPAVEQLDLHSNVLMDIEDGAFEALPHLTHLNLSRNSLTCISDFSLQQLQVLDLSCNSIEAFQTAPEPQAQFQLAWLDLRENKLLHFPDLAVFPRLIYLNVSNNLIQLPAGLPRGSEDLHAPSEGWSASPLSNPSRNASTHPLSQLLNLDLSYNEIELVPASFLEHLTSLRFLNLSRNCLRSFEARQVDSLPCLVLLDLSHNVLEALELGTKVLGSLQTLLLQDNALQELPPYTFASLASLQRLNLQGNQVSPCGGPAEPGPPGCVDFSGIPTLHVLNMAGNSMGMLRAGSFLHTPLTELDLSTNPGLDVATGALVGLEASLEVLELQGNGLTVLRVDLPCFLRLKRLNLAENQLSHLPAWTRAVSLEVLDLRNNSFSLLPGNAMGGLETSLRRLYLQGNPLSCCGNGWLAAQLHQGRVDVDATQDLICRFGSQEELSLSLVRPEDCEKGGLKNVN
Experimental: as §1, §2, §3

[9] = test system: Wistar-Han rats on a CDHF diet; test: CDHFD target engagement study in rats; type: in vivo
Experimental: A similar study was run in 10-12 week old male Wistar-Han rats as follows: rats were fed on a CDHF diet for 12 weeks and then randomized. A first dose of the negative control (“HuNEG” IgG4, 30 mg/kg, n=6) or Ab46 (3, 10, and 30 mg/kg, n=8) was given on Day 1, and a second dose was given on Day 3. Treatment with a TGF-β type 1 receptor (ALK5) kinase inhibitor (ALK5i, 10 mg/kg) was used as a positive control. Tissue collection (left lateral lobe) was performed on Day 5. All rats had detectable serum antibody exposure. […] The study was repeated with a broader dose range: rats were fed on a CDHF diet for 12 weeks and then randomized. A single dose of 0.3 mg/kg, 1 mg/kg, 3 mg/kg, 10 mg/kg, or 30 mg/kg of Ab46 was given on Day 1, and tissue collection was performed after 48 hours.

hLTBP1-proTGFβ1 [10] = biological target: T9, hLTBP1-proTGFβ1 (Homo sapiens, UniProt P01137); test: Biacore SPR Fab binding kinetics
T9 construct: biotin (the antigen complex is biotinylated); made in house
T9 sequence (P01137 30-390): as the sequence (P01137 30-390) above
T9 sequence (Q14766 347-1721 partner limits assumed): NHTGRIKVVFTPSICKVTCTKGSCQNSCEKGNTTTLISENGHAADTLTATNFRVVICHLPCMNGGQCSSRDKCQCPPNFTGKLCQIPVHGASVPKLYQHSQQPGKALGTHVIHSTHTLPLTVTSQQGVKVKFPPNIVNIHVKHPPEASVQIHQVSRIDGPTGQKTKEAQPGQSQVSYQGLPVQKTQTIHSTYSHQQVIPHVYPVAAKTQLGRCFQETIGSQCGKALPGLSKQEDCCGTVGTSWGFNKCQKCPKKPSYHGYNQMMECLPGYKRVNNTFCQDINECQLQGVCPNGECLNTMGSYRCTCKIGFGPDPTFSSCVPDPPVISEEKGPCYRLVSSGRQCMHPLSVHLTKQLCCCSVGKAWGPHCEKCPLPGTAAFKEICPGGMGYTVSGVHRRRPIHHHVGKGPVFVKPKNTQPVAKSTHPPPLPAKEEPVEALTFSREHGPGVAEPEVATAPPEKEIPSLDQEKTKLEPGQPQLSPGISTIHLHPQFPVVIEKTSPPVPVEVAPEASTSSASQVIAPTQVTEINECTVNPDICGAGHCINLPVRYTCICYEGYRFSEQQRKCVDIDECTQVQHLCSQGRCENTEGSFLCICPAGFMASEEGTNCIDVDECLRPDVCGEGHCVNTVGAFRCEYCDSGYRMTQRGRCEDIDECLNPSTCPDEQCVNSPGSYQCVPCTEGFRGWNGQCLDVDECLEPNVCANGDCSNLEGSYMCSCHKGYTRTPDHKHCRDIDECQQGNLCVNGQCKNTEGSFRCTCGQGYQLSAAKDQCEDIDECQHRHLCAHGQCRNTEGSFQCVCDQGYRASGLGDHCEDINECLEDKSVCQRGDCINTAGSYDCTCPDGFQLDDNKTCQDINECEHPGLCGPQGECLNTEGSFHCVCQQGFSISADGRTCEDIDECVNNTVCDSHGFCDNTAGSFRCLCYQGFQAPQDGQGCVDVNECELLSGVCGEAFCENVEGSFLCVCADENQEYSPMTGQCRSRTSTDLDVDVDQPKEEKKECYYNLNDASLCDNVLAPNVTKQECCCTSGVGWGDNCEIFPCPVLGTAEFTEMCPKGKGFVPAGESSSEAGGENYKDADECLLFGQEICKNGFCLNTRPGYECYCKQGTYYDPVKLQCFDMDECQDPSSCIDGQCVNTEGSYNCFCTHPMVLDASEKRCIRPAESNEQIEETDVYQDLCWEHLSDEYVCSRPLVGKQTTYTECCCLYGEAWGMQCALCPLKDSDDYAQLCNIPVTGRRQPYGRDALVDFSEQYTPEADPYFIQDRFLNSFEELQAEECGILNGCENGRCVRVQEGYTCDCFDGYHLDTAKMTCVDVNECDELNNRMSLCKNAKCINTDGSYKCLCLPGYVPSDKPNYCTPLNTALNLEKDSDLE
Experimental: as §1, §2, §3
(§4) The binding kinetics of antibody interactions with each of the antigen complexes, human LTBP1-ProTGFβ1, human LTBP3-ProTGFβ1, human GARP-ProTGFβ1, and human LRRC33-ProTGFβ1, were evaluated by surface plasmon resonance. Binding kinetics was evaluated by surface plasmon resonance using a BIACORE® 8K (GE) instrument. Biotinylated antigens were captured on a Biotin CAP chip and the Fab fragments of the antibodies were used as analytes. Sensorgrams for Fab binding at variable concentrations (0.6-10 nM) were globally fit to obtain the kinetic parameters.
(§5) Binding kinetics for the Fabs were evaluated against each of the four human antigens, LTBP1-ProTGFβ1, LTBP3-ProTGFβ1, GARP-ProTGFβ1, and LRRC33-ProTGFβ1. […] These experiments were repeated.

hLTBP3-proTGFβ1 [11] = biological target: T10, hLTBP3-proTGFβ1 (Homo sapiens, UniProt P01137); test: Biacore SPR Fab binding kinetics
T10 construct: biotin (the antigen complex is biotinylated); made in house
T10 sequence (P01137 30-390): as the sequence (P01137 30-390) above
T10 sequence (Q9NS15 44-1303 partner): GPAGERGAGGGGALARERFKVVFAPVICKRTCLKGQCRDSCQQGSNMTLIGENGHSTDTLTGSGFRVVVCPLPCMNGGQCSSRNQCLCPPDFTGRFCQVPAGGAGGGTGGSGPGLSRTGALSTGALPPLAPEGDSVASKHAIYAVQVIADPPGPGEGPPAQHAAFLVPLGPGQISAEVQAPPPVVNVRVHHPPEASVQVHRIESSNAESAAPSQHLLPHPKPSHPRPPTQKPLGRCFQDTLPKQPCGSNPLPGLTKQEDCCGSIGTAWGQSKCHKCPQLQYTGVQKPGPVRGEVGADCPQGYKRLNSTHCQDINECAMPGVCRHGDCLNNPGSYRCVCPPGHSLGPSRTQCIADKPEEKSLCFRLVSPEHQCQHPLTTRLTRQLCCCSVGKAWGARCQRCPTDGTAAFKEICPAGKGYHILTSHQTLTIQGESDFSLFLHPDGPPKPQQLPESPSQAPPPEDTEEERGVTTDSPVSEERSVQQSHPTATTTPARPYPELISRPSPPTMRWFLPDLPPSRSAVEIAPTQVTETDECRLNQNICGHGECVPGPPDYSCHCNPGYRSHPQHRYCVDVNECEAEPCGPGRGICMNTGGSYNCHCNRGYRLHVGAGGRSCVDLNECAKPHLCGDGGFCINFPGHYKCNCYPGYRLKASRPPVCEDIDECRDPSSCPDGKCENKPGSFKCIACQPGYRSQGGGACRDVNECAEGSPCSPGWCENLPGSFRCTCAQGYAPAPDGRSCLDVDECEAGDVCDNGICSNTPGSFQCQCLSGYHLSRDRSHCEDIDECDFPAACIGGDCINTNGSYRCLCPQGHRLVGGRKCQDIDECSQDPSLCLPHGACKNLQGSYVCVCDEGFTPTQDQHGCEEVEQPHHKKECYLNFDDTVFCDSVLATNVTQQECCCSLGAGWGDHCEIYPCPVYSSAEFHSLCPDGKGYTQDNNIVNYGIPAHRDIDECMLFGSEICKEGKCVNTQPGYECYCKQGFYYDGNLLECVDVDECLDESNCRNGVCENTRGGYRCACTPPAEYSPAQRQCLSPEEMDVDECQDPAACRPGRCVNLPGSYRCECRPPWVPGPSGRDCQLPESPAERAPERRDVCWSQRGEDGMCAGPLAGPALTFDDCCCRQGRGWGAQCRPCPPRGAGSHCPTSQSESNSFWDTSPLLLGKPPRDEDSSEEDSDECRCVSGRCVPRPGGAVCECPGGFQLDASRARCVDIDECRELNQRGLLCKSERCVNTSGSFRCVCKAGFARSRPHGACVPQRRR
Experimental: as §1, §2, §3, §4, §5

hLRRC33-proTGFβ1 = biological target: T11, hLRRC33-proTGFβ1 (Homo sapiens, UniProt P01137); test: Biacore SPR Fab binding kinetics
T11 construct: biotin (the antigen complex is biotinylated); made in house
T11 sequence (P01137 30-390): as the sequence (P01137 30-390) above
T11 sequence (Q86YC3 with tags, fused parts or gaps partner limits assumed): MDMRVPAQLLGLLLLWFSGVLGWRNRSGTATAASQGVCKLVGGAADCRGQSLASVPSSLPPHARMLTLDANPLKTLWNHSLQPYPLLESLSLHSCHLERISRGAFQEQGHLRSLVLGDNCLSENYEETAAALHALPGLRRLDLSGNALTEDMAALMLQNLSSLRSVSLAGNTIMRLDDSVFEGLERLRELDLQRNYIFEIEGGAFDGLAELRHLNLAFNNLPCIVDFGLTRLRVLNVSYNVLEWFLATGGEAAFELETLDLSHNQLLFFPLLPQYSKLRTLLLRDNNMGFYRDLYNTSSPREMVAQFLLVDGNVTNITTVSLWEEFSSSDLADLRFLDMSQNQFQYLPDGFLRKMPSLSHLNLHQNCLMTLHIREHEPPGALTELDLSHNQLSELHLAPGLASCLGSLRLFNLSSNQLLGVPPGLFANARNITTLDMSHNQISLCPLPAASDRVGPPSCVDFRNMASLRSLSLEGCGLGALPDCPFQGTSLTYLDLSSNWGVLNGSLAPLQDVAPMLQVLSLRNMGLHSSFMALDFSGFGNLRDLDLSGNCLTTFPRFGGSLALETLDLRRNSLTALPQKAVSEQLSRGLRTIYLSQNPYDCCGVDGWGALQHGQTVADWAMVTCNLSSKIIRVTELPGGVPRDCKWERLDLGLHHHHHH
Experimental: as §1, §2, §3, §4, §5

hGARP-proTGFβ1 [12] = biological target: T12, hGARP-proTGFβ1 (Homo sapiens, UniProt P01137); test: Biacore SPR Fab binding kinetics
T12 construct: biotin (the antigen complex is biotinylated); made in house
T12 sequence (P01137 30-390): as the sequence (P01137 30-390) above
T12 sequence (Q14392 18-627 partner limits assumed): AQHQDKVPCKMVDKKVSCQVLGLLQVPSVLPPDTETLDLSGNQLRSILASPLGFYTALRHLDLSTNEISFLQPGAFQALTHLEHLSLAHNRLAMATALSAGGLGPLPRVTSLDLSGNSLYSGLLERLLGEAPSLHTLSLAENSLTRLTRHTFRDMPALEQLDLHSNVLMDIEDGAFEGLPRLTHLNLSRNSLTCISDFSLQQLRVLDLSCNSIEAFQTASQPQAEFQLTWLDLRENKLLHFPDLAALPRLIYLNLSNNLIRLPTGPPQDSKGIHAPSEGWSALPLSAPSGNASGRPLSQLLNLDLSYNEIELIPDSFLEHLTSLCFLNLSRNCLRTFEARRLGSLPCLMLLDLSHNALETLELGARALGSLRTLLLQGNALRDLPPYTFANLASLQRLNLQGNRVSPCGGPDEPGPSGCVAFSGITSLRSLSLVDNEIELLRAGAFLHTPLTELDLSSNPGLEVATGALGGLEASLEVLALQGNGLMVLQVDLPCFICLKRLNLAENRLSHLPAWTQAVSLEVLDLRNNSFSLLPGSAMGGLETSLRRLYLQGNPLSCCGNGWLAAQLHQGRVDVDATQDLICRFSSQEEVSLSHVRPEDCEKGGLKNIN
Experimental: as §1, §2, §3, §4, §5

hLTBP1-proTGFβ1 [13] = biological target: T9, hLTBP1-proTGFβ1; test: Octet binding kinetics (BLI); conditions: Fab in solution, immobilized biotinylated antigen
Experimental: (§6) The table below exemplifies binding kinetics of the listed antibodies (e.g., Fabs) obtained by OCTET®-based binding assays. The experiments were conducted with immobilized, biotinylated antigen and Fab fragments (e.g., test antibodies) in solution.
(§7) In some embodiments, the binding affinity of an antibody, or antigen-binding portion thereof, to an antigen (e.g., protein complex), such as presenting molecule-proTGFβ1 complexes, is determined using an Octet assay. In some embodiments, an Octet assay is an assay that determines one or more a kinetic parameters indicative of binding between an antibody and antigen. In some embodiments, an OCTET® system (FORTEBIO®, Menlo Park, Calif.) is used to determine the binding affinity of an antibody, or antigen-binding portion thereof, to presenting molecule-proTGFβ1 complexes. For example, binding affinities of antibodies may be determined using the FORTEBIO® Octet QKe dip and read label free assay system utilizing bio-layer interferometry. In some embodiments, antigens are immobilized to biosensors (e.g., streptavidin-coated biosensors) and the […] are presented in solution at high concentration (50 μg/mL) to measure binding interactions. In some embodiments, the binding affinity of an antibody, or antigen-binding portion thereof, to a presenting molecule-proTGFβ1 complex is determined using the protocol outlined in Table 14.
(§8) The protocol used to measure the affinity of the antibodies to the complexes provided herein is summarized in Table 14 below, and a summary list of affinity profiles of exemplary antibodies of the present disclosure is provided in Table 6 herein.

hLTBP3-proTGFβ1 [14] = biological target: T10, hLTBP3-proTGFβ1; test: Octet binding kinetics (BLI); conditions: Fab in solution, immobilized biotinylated antigen
Experimental: as §6, §7, §8

hGARP-proTGFβ1 [15] = biological target: T12, hGARP-proTGFβ1; test: Octet binding kinetics (BLI); conditions: Fab in solution, immobilized biotinylated antigen
Experimental: as §6, §7, §8

CDHFD mice = test: choline-deficient high fat diet (CDHFD) liver fibrosis model; type: in vivo

B1: Ab46: activation inhibitor of TGFβ1; H-CDR3 VSGHWDYD, L-CDR2 AASGLES, L-CDR3 QQTYGVPLT (Table 3) (antibody, V domains shown)
VH: EVQLLESGGGLVQPGGSLRLSCAASGFTFADYAMTWVRQAPGKGLEWVSAISGSGAATYFADSVKGRFTISRDNSKNTLYLQMNSLRAEDTAVYYCARVSSGHWDYDYWGQGTLVTVSS
VL: DIQLTQSPSSLSASVGDRVTITCRASQSISSYLNWYQQKPGKAPKLLIYAASGLESGVPSRFSGSGSGTDFTLTISSLQPEDFATYYCQQTYGVPLTFGGGTKVEIK
In the case of B1, the “binding by ELISA” value (LLCs) is reported as “Specific and selective binding”, the KOFF (mLTBP3-proTGFβ1 [1]) is reported as 0.000115 s⁻¹ and the KON (mLTBP3-proTGFβ1 [2]) is reported as 1.20E+06 M^−1/s^−1. It also gave a KOFF (mLRRC33-proTGFβ1 [3]) of 0.000112 s⁻¹, a KOFF (mGARP-proTGFβ1 [4]) of 0.000278 s⁻¹ and a KON (mLRRC33-proTGFβ1 [5]) of 1.26E+06 M^−1/s^−1. For the same molecule, the KOFF (mLTBP1-proTGFβ1 [6]) was 9.87e-05 s⁻¹, the KON (mLTBP1-proTGFβ1 [7]) was 1.85E+06 M^−1/s^−1 and the KON (mGARP-proTGFβ1 [8]) was 1.02E+06 M^−1/s^−1. For the same molecule, the “% pSMAD2-positive nuclei, left lateral lobe” value ([9]; 3, 10 and 30 mg/kg on Day 1 and Day 3 after 12 weeks of CDHFD, tissue Day 5) was “suppression of SMAD2 phosphorylation; also recorded: able to suppress phosphorylation of SMAD2”, the “reduction in percentage of pSMAD2-positive nuclei compared with Ab2” value ([9]; rat, in vivo) was “greater” and the “% pSMAD2-positive nuclei” value ([9]; single dose 10 mg/kg and 30 mg/kg on Day 1, tissue after 48 hours) was “appeared to fully suppress SMAD2 phosphorylation; also recorded: significant reduction of pSMAD2-positive nuclei”. The KOFF (hLTBP1-proTGFβ1 [10]; Biacore 8K, Table 22) was 8.52e-05 s⁻¹, the kon (hLTBP1-proTGFβ1 [10]; Biacore 8K, Table 22) was 2.44e+06 M⁻¹ s⁻¹ and the KOFF (hLTBP1-proTGFβ1 [10]; Biacore, Table 5) was 8.81e-05 s⁻¹. The KON (hLTBP1-proTGFβ1 [10]; Biacore, Table 5) was 1.75E+06 M^−1/s^−1, the “time bound to the antigen relative to the reference antibody” value (hLTBP1-proTGFβ1 [10]; SPR, FIG. 2, antigen not given) was “more than 50 times” and the “t1/2 (dissociation)” value (hLTBP1-proTGFβ1 [10]; SPR, FIG. 2, antigen not given, values fit the KOFF of Table 5) was “over 130 minutes”. The KOFF (hLTBP3-proTGFβ1 [11]; Biacore 8K, Table 22) was 0.000195 s⁻¹, the kon (hLTBP3-proTGFβ1 [11]; Biacore 8K, Table 22) was 1.78e+06 M⁻¹ s⁻¹ and the KOFF (hLTBP3-proTGFβ1 [11]; Biacore, Table 7) was 0.000128 s⁻¹. It also gave a KON (hLTBP3-proTGFβ1 [11]; Biacore, Table 7) of 1.00E+06 M^−1/s^−1, a KOFF (hLRRC33-proTGFβ1; Biacore 8K, Table 22) of 0.000162 s⁻¹ and a kon (hLRRC33-proTGFβ1; Biacore 8K, Table 22) of 1.36e+06 M⁻¹ s⁻¹. For the same molecule, the KOFF (hLRRC33-proTGFβ1; Biacore, Table 11) was 0.000128 s⁻¹, the KON (hLRRC33-proTGFβ1; Biacore, Table 11) was 1.52E+06 M^−1/s^−1 and the KOFF (hGARP-proTGFβ1 [12]; Biacore 8K, Table 22) was 0.000359 s⁻¹. It also gave a kon (hGARP-proTGFβ1 [12]; Biacore 8K, Table 22) of 1.89e+06 M⁻¹ s⁻¹, a KOFF (hGARP-proTGFβ1 [12]; Biacore, Table 9) of 0.000222 s⁻¹ and a KON (hGARP-proTGFβ1 [12]; Biacore, Table 9) of 9.65E+05 M^−1/s^−1. It also gave a KOFF (hLTBP1-proTGFβ1 [13]) of 4.98e-05 s⁻¹, a KON (hLTBP1-proTGFβ1 [13]) of 7.03E+05 M^−1/s^−1 and a KOFF (hLTBP3-proTGFβ1 [14]) of 0.000438 s⁻¹. The KON (hLTBP3-proTGFβ1 [14]) was 6.19E+05 M^−1/s^−1, the KOFF (hGARP-proTGFβ1 [15]) was 0.00029 s⁻¹ and the KON (hGARP-proTGFβ1 [15]) was 7.03E+05 M^−1/s^−1. For the same molecule, the “% positive pSMAD2 nuclei in liver” value (CDHFD mice; 30 mg/kg on Day 1 and Day 3 after ten weeks of CDHFD) was “Significant reduction in % positive pSMAD2 nuclei”, the “ratio of phosphorylated versus total SMAD2/3 in the medial lobe (ELISA)” value (CDHFD mice; 3, 10 and 30 mg/kg on Day 1 and Day 3 after ten weeks of CDHFD, tissue Day 5, p<0.05) was “Significant reduction in pSMAD2/3” and the “reduction in % pSMAD2 nuclei compared to comparable doses of Ab2” value (CDHFD mice; data not shown) was “greater”.
